The record followed here is US20100330617A1 (Sanofi, published 2010).

In this assay the target is T1, bovine serum albumin (bovine, UniProt P02769 25-607).
T1 construct: Control resin with an equimolar amount of BSA coupled; also called BSA; BSA-agarose resin
Kind of assay: affinity chromatography of murine liver extract on BSA control resin, SDS-PAGE and silver staining.

T1 sequence (P02769 25-607 limits assumed): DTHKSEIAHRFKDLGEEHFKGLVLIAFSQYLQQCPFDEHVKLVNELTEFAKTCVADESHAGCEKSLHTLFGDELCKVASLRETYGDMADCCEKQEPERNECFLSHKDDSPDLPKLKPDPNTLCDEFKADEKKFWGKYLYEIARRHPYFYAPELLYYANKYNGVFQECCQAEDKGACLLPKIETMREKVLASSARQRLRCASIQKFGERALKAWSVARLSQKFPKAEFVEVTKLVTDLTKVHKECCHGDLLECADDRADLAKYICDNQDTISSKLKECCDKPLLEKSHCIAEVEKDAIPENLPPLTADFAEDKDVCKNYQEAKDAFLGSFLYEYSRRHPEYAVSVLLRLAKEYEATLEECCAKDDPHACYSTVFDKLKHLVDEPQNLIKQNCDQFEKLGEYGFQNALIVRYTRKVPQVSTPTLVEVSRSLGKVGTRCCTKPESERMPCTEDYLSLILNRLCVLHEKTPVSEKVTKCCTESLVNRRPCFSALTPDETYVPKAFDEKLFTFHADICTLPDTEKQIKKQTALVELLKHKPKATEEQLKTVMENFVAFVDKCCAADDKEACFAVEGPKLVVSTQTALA

B1: endogenous LIMP-2 from murine liver extract (75 kD GC binding protein) (receptor)
chain: MGRCCFYTAGTLSLLLLVTSVTLLVARVFQKAVDQTIEKNMVLQNGTKVFNSWEKPPLPVYIQFYFFNVTNPEEILQGEIPLLEEVGPYTYRELRNKANIQFGENGTTISAVTNKAYVFERNQSVGDPNVDLIRTINIPLLTVVDLAQLTLLRELIEAMLKAYQQKLFVIHTVHELLWGYKDEILSLVHIFKPDVSPNFGLFYERNGTNDGEYVFLTGEDNYLNFSKIVEWNGKTSLDWWTTDTCNMINGTDGDSFHPLISKDEVLYLFPSDLCRSVHITFSSFENVEGLPAFRYKVPAEILANTSENAGFCIPEGNCMDSGVLNISICKNGAPIIMSFPHFYQADEKFVSAIKGMHPNKEEHESFVDINPLTGIILRGAKRFQINTYVRKLDDFVETGDIRTMVFPVMYLNESVLIDKETANQLKSVINTTLVVTNIPYIIMALGVFFGLVFTWLACRGQGSMDEGTADERAPLIRT
notes: Identified by mass spectrometry as LIMP-2; N-glycosylated (75 kD, 54 kD after PNGase-F); also called 75 kD polypeptide
Take B1: the binding result is recorded as “no binding”.
